The results in this text go back to patent publication US10253076B2, “Peptides and combination of peptides for use in immunotherapy against ovarian cancer and other cancers” (immatics biotechnologies GmbH, priority 2015, dated 2019).

The test concerns the target HLA-A*02:01 (Homo sapiens, UniProt P04439, D140Y/D185E/D98H/E176V/E277Q/G131W/G231S/I119V/I121R/I166T/I218V/L300P/L318F/N151K/N90K/P208A/P217A/Q86G/Q94H/R138H/R169H/T345S). The experiment in a line: MHC binding assay (UV-ligand exchange, beta2m ELISA, peptide exchange yield). The conditions noted are these: binding of HLA-class I restricted peptides to HLA-A*02:01, ranged by peptide exchange yield (UV-ligand exchange, β2m ELISA). Put shortly: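 Readout is a β2m ELISA: stabilized complexes captured on streptavidin, detected with HRP-conjugated anti-β2m and TMB at 450 nm, reporting peptide exchange yield. Complexes come from UV-light cleavage of a conditional ligand in HLA-A*02:01 and replacement by the candidate peptide, samples diluted 100-fold.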
(In an ELISA, binding on a coated surface is turned into a signal by an enzyme label.)

In the case of “601 (SAFPFPVTV; listed as Homo sapiens) [compound 601]”, the Peptide exchange entry is listed as “″+++″ (≥50% = +++)”.
Consider “494 (ALQPEPIKV; listed as Homo sapiens) [compound 494]”, for which the Peptide exchange result is reported as “″++″ (≥20% = ++)”.
For “43 (VLSSLEINI; listed as Homo sapiens) [compound 43]” the value was “″++″ (≥20% = ++)”.
In the case of “553 (SLLNQDLHWSL; listed as Homo sapiens) [compound 553]”, the Peptide exchange entry is recorded as “″++++″ (≥75% = ++++)”.
As to “109 (IILSILEQA; listed as Homo sapiens) [compound 109]”, the Peptide exchange entry was “″++++″ (≥75% = ++++)”.
Regarding “507 (KLIDDQDISISL; listed as Homo sapiens) [compound 507]”, the Peptide exchange result was “″+++″ (≥50% = +++)”.
As for “478 (YLLHEKLNL; listed as Homo sapiens) [compound 478]”, the Peptide exchange result is “″+++″ (≥50% = +++)”.
Regarding “144 (YIMEPSIFNTL; listed as Homo sapiens) [compound 144]”, the Peptide exchange result was “″+++″ (≥50% = +++)”.
As for “495 (FIFSEKPVFV; listed as Homo sapiens) [compound 495]”, the Peptide exchange entry is recorded as “″+++″ (≥50% = +++)”.
Take “514 (ILVDWLVQV; listed as Homo sapiens) [compound 514]”: the Peptide exchange result was “″+++″ (≥50% = +++)”.
Turning to “578 (FLDPGGPMMKL; listed as Homo sapiens) [compound 578]”, the Peptide exchange result is “″+++″ (≥50% = +++)”.
The result for “355 (SIQQSIERLLV; listed as Homo sapiens) [compound 355]” reads “″++″ (≥20% = ++)”; that for “377 (FLLDSSASV; listed as Homo sapiens) [compound 377]”, “″++″ (≥20% = ++)”; that for “31 (YLAPELFVNV; listed as Homo sapiens) [compound 31]”, “″++″ (≥20% = ++)”.
The result for “316 (ILLERLWYV; listed as Homo sapiens) [compound 316]” reads “″+++″ (≥50% = +++)”; that for “126 (VLAYFLPEA; listed as Homo sapiens) [compound 126]”, “″++++″ (≥75% = ++++)”; that for “434 (KVSNSGITRV; listed as Homo sapiens) [compound 434]”, “″++″ (≥20% = ++)”.
As to “211 (LLWPGAALL; listed as Homo sapiens) [compound 211]”, the Peptide exchange result was “″++″ (≥20% = ++)”.
For the substance “502 (RLLAQVPGL; listed as Homo sapiens) [compound 502]”, the Peptide exchange entry was “″+++″ (≥50% = +++)”.
For “308 (SQYSGQLHEV; listed as Homo sapiens) [compound 308]” the value was “″+++″ (≥50% = +++)”; for “325 (FIMPATVADATAV; listed as Homo sapiens) [compound 325]”, “″+++″ (≥50% = +++)”; for “554 (LLMPSSEDLLL; listed as Homo sapiens) [compound 554]”, “″+++″ (≥50% = +++)”.
As for “595 (VLLSIYPRV; listed as Homo sapiens) [compound 595]”, the Peptide exchange result was “″+++″ (≥50% = +++)”.
Turning to “242 (AIAYILQGV; listed as Homo sapiens) [compound 242]”, the Peptide exchange entry is listed as “″++″ (≥20% = ++)”.
As for “252 (LLIGTDVSL; listed as Homo sapiens) [compound 252]”, the Peptide exchange result is on record as “″+++″ (≥50% = +++)”.
As for “504 (GLSDGNPSL; listed as Homo sapiens) [compound 504]”, the Peptide exchange result is on record as “″++″ (≥20% = ++)”.
In the case of “497 (GLLEKLTAI; listed as Homo sapiens) [compound 497]”, the Peptide exchange entry is on record as “″+++″ (≥50% = +++)”.
For “394 (LLAVIGGLVYL; listed as Homo sapiens) [compound 394]”, the Peptide exchange entry was “″+++″ (≥50% = +++)”.
Regarding “133 (KVLSNIHTV; listed as Homo sapiens) [compound 133]”, the Peptide exchange result is listed as “″++″ (≥20% = ++)”.
As to “54 (SLLEQGKEPWMV; listed as Homo sapiens) [compound 54]”, the Peptide exchange result is “″+++″ (≥50% = +++)”.
The result for “546 (VMIAGKVAVV; listed as Homo sapiens) [compound 546]” reads “″+++″ (≥50% = +++)”; that for “14 (AAYGGLNEKSFV; listed as Homo sapiens) [compound 14]”, “″+++″ (≥50% = +++)”.
Take “55 (SLLDLETLSL; listed as Homo sapiens) [compound 55]”: the Peptide exchange entry is listed as “″++++″ (≥75% = ++++)”.
For the substance “498 (KLWTGGLDNTV; listed as Homo sapiens) [compound 498]”, the Peptide exchange entry is “″+++″ (≥50% = +++)”.
Take “541 (SMLEPVPEL; listed as Homo sapiens) [compound 541]”: the Peptide exchange entry is recorded as “″+++″ (≥50% = +++)”.
In the case of “22 (IMEENPGIFAV; listed as Homo sapiens) [compound 22]”, the Peptide exchange entry was “″+++″ (≥50% = +++)”.
Consider “198 (KTINKVPTV; listed as Homo sapiens) [compound 198]”, for which the Peptide exchange entry is reported as “″+++″ (≥50% = +++)”.
As to “587 (VMNDRLYAI; listed as Homo sapiens) [compound 587]”, the Peptide exchange result is reported as “″+++″ (≥50% = +++)”.
The result for “473 (AMATESILHFA; listed as Homo sapiens) [compound 473]” reads “″+++″ (≥50% = +++)”; that for “45 (SLWQDIPDV; listed as Homo sapiens) [compound 45]”, “″+++″ (≥50% = +++)”; that for “363 (KVLDVSDLESV; listed as Homo sapiens) [compound 363]”, “″++″ (≥20% = ++)”.
For the substance “559 (VTVPPGPSL; listed as Homo sapiens) [compound 559]”, the Peptide exchange result is “″++″ (≥20% = ++)”.
Consider “616 (VLIDEVESL; listed as Homo sapiens) [compound 616]”, for which the Peptide exchange result was “″+++″ (≥50% = +++)”.
The result for “395 (ALALGGIAVV; listed as Homo sapiens) [compound 395]” reads “″++++″ (≥75% = ++++)”; that for “286 (YLFPGIPEL; listed as Homo sapiens) [compound 286]”, “″+++″ (≥50% = +++)”.
For “618 (VLFDSESIGIYV; listed as Homo sapiens) [compound 618]”, the Peptide exchange entry is reported as “″+++″ (≥50% = +++)”.
On to “21 (VLDELDMEL; listed as Homo sapiens) [compound 21]”, for which the Peptide exchange entry was “″++″ (≥20% = ++)”.
Take “396 (ALLPDLPAL; listed as Homo sapiens) [compound 396]”: the Peptide exchange entry is listed as “″+++″ (≥50% = +++)”.
“50 (SLSELEALM; listed as Homo sapiens) [compound 50]”: the Peptide exchange entry was “″+++″ (≥50% = +++)”.
As for “177 (YLLPEEYTSTL; listed as Homo sapiens) [compound 177]”, the Peptide exchange entry is given as “″++++″ (≥75% = ++++)”.
The result for “371 (FLQAHLHTA; listed as Homo sapiens) [compound 371]” reads “″++++″ (≥75% = ++++)”.
The result for “440 (ALADGVTMQV; listed as Homo sapiens) [compound 440]” reads “″++″ (≥20% = ++)”; that for “123 (NLWDLTDASVV; listed as Homo sapiens) [compound 123]”, “″+++″ (≥50% = +++)”; that for “477 (ALLPASGQIAL; listed as Homo sapiens) [compound 477]”, “″+++″ (≥50% = +++)”.
In the case of “89 (YILPTETIYV; listed as Homo sapiens) [compound 89]”, the Peptide exchange result was “″++++″ (≥75% = ++++)”.
In the case of “170 (RLQETLSAA; listed as Homo sapiens) [compound 170]”, the Peptide exchange result is “″+++″ (≥50% = +++)”.
For the substance “623 (YLVEDIQHI; listed as Homo sapiens) [compound 623]”, the Peptide exchange entry was “″+++″ (≥50% = +++)”.
Take “44 (ILDPISSGFLL; listed as Homo sapiens) [compound 44]”: the Peptide exchange result is “″++″ (≥20% = ++)”.
In the case of “7 (SLVGLLLYL; listed as Homo sapiens) [compound 7]”, the Peptide exchange entry was “″++++″ (≥75% = ++++)”.
For “214 (FLLDLDPLLL; listed as Homo sapiens) [compound 214]” the value was “″+++″ (≥50% = +++)”; for “604 (SILDRDDIFV; listed as Homo sapiens) [compound 604]”, “″+++″ (≥50% = +++)”.
On to “591 (SMAELDIKL; listed as Homo sapiens) [compound 591]”, for which the Peptide exchange result was “″+++″ (≥50% = +++)”.
In the case of “348 (ILLDVKTRL; listed as Homo sapiens) [compound 348]”, the Peptide exchange result is recorded as “″++++″ (≥75% = ++++)”.
Take “253 (GLDAATATV; listed as Homo sapiens) [compound 253]”: the Peptide exchange entry is listed as “″++″ (≥20% = ++)”.
Take “278 (QLLDVVLTI; listed as Homo sapiens) [compound 278]”: the Peptide exchange result is reported as “″++″ (≥20% = ++)”.
For “339 (GLWEIENNPTVKA; listed as Homo sapiens) [compound 339]” the value was “″++++″ (≥75% = ++++)”.
Regarding “427 (ALLPLSPYL; listed as Homo sapiens) [compound 427]”, the Peptide exchange entry is given as “″+++″ (≥50% = +++)”.
For “466 (VLIANLEKL; listed as Homo sapiens) [compound 466]”, the Peptide exchange entry is “″++++″ (≥75% = ++++)”.
For the substance “332 (YLISELEAA; listed as Homo sapiens) [compound 332]”, the Peptide exchange result is “″+++″ (≥50% = +++)”.
Consider “518 (KLNAEVACV; listed as Homo sapiens) [compound 518]”, for which the Peptide exchange result is on record as “″+++″ (≥50% = +++)”.
